Experimental data published in patent US7279548B2, “Identification and isolation of novel polypeptides having WW domains and methods of using same” (Cytogen Corporation, priority 1996, dated 2007).
No end group written: not given here.

Legend:
[1] = molecular target: T1, WW domains of WWP1 expressed as GST fusion proteins (Homo sapiens, UniProt Q9H0M0); assay: ELISA based cross affinity mapping, WW domains of WWP1; format: binding; conditions: GST fusion protein
T1 construct: twelve individual novel WW domains of WWP1, WWP2, WWP3 and WWP4 which were expressed as GST fusion proteins; made in house
Procedure: (§1) The 16 day mouse embryo cDNA expression library was diluted 1:1000 in SM solution (100 mM NaCl, 8 mM MgSOv4, 50 mM Tris HCl pH 7.5, 0.01% gelatin). To a sterile test tube, 2 μl of diluted mouse embryo library, 100 μl of 10 mM CaCl2, 100 μl of 10 mM MgCl2 and 100 μl of BL21(DE3)pLysE bacterial cells (grown overnight) were added and incubated for 30 minutes at 37° C. The contents of the tube were mixed with 3 ml of 0.6% top agarose, containing […] chloramphenicol, and poured onto a 2xYT plate (90 mm diameter). For a large primary screen, 10–20 plates were prepared with 3×10^4 pfu per plate. After 6 hours incubation at 37° C., a nitrocellulose filter soaked in 10 mM isopropyl-β-D-thiogalactopyranoside (IPTG) was overlaid on each plate and incubated 3–6 hours at 37° C. Before the filters were removed from the plates, they were marked asymmetrically with India ink in a 18 gauge syringe needle. The plates were stored at 4° C. until ready for the secondary screen. The filters were washed with PBS (137 mM NaCl, 2.7 mM KCl, 4.3 mM Na2HPO4, 1.4 mM KH2PO4)-0.05% Triton X-100 three times at room temperature, 15 minutes each wash, and then placed in a plastic bag containing non-specific blocking solution (PBS-2% BSA) for one hour. In the meantime, 1 ml of 1 mM biotinylated peptide in PBS-0.1% Tween 20 was added to 20 ml of 1 mg/ml streptavidin-alkaline phosphatase (SA-AP) in PBS-0.1% Tween 20 and incubated at 4° C. for 30 minutes. […] Excess biotin-binding sites would then be blocked by addition of 500 pmol biotin. […] Ten μl of 0.1 mM biotin would then be added, and the solution incubated for an additional 15 min.
(§2) To determine the ligand preferences of the novel WW omain-containing clones described in Sections 6.1 and 6.1.1, as well as addressing the issue of whether peptides containing PPPPY (SEQ ID NO:3)-like motifs derived from a variety of proteins could also serve as recognition units and bind to these clones, a cross affinity mapping experiment was performed (FIGS. 15A–D). The peptides shown in FIGS. 15A–D were synthesized, biotinylated, complexed with streptavidin-alkaline phosphatase, and tested in an ELISA based assay for their ability to bind to the twelve individual novel WW domains of WWP1, WWP2, WWP3 and WWP4 which were expressed as GST fusion proteins. The ELISA based cross-affinity experiments were performed essentially as described by Sparks et al. (1996, Proc. Natl. Acad. Sci. 93:1540–1544) with the following modifications. Briefly, microtiter wells were coated with 1–5 μg of fusion protein in 100 mM NaHCO3, blocked with SuperBlock TBS (Pierce) and washed four times with PBS, 0.05% Tween 20. Specific peptide-streptavidin/alkaline phosphatase complexes were added as above and unbound complexes washed five times with PBS, 0.05% Tween 20. Following addition of PNP substrate (p-nitrophenyl phosphate, Kirkegard & Perry Labs), peptide binding was quantitated after 30 min. at O.D. 405 nm. Relative binding measurements from three independent determinations were assigned to a scale as follows: O.D. units 0–0.5=(−), 0.5–1.0=(+), 1.0–2.0=(++), 2.0–3.0=(+++), >3.0=(++++). Peptide binding to human Fyn and Lyn SH3 and SH2 domains was assessed by a filter binding assay (see Section 6.1 and Sparks et al., 1996, Proc. Natl. Acad. Sci 93:1540–1544). Peptide sequences used in cross-affinity experiments correspond to segments of the following genes: RasGap (Database accession # P20936), AP-2 (P05549), p53BP-2 (U09582), IL-6Rα (P22272), voltage-gated chloride channel CLCN5 (X91906), IL-2Rγ (D111086), RSV (D10652), HTLV-1 (D13784), β-dystroglycan (L19711), Formin (X53599), amiloride-sensitive epithelial Na^+ channel ENaCα (P37089), ENaCβ (X87159) and ENaCγ (X87160), muscarinic acetylcholine receptor M4 AChR (P08173), and c-Abl (P00522). Src and Crk SH3 binding peptide sequences were derived from a phage display random peptide library screen (Section 6.1 and Sparks et al., 1996, Proc. Natl. Acad. Sci. 93:1540–1544).

[2] = molecular target: T2, WW domains of WWP2 expressed as GST fusion proteins (Homo sapiens, UniProt O00308); assay: ELISA based cross affinity mapping, WW domains of WWP2; format: binding
T2 construct: twelve individual novel WW domains of WWP1, WWP2, WWP3 and WWP4 which were expressed as GST fusion proteins; made in house
Procedure: as §1, §2

[3] = tested on: twelve individual novel WW domains of WWP1, WWP2, WWP3 and WWP4; assay: ELISA based cross affinity mapping, whole panel of novel WW domains; format: binding, human; conditions: biotinylated peptide-streptavidin/alkaline phosphatase complex, GST fusion proteins
Procedure: as §1, §2

[4] = tested on: WW domains of WWP1 expressed as GST fusion proteins; assay: ELISA based cross affinity mapping, WW domains of WWP1; format: binding, human; conditions: biotinylated peptide-streptavidin/alkaline phosphatase complex; GST fusion proteins; ELISA
Procedure: as §1, §2

[5] = molecular target: T3, WW domains of WWP4 expressed as GST fusion proteins (Homo sapiens, UniProt Q96PU5); assay: ELISA based cross affinity mapping, WW domains of WWP4; format: binding; conditions: GST fusion protein
T3 construct: twelve individual novel WW domains of WWP1, WWP2, WWP3 and WWP4 which were expressed as GST fusion proteins; made in house
Procedure: as §1, §2

[6] = tested on: WW domains of WWP4 expressed as GST fusion proteins; assay: as above; format: binding, human; conditions: biotinylated peptide-streptavidin/alkaline phosphatase complex; GST fusion proteins; ELISA
Procedure: as §1, §2

[7] = tested on: WW domains of WWP2 expressed as GST fusion proteins; assay: ELISA based cross affinity mapping, WW domains of WWP2; format: binding, human; conditions: biotinylated peptide-streptavidin/alkaline phosphatase complex; GST fusion proteins; ELISA
Procedure: as §1, §2

binding to individual WW domain WWP1.4 [1]	binding to individual WW domain WWP2.4 ([2]; GST fusion protein)	binding to WW domains of WWP1 [4]	binding to individual WW domain WWP1.1 [1]	binding to individual WW domain WWP4.1 [5]	binding to individual WW domain WWP4.2 [5]	binding to individual WW domain WWP4.3 [5]	binding to WW domains of WWP4 [6]	binding to WW domains of WWP2 [7]	binding to individual WW domain WWP2.1 ([2]; GST fusion protein)	binding to individual WW domain WWP2.2 ([2]; GST fusion protein)	O.D. after 30 minutes at 405 nm ([2]; individual WW domain WW2.4, GST fusion protein)	binding to individual WW domain WWP1.2 [1]	binding to individual WW domain WWP2.3 ([2]; GST fusion protein)	Substance	binding to the novel WW domains (WWP1, WWP2, WWP3, WWP4 panel) [3]
appreciable binding	appreciable binding	–	–	–	–	–	–	–	–	–	–	–	–	CLCN5: peptide from the voltage-gated renal chloride channel CLCN5 (X91906) (SPPLPPYTPP)	bound to WW domains from one or more of the four novel clones
binds	binds	bind to individual WW domains	binds	binds	binds	binds	bind to individual WW domains	bind to individual WW domains	binds	binds	3.0	–	–	bWW059: biotinylated peptide corresponding to the wild-type PPPPY-like motif in the HECT domain of WWP4 (NRLDLPPYETFED; also: biotinylated, site not given here)	–
–	–	–	–	–	–	–	loss of binding activity	–	–	–	–	did not abolish binding	did not abolish binding	WBP-1-Pro2: alanine substitution variant of WBP-1 at the second proline residue of the PPPPY motif (SGSGPGTPAPPYTVGPGY)	–
